Measured values published in article PMC12866951 (Cell, 2026).

T1: S.c. Rad27 (Fen1) flap endonuclease with a 6xHis tag at the C-terminus (S. cerevisiae, UniProt P26793 1-382)
T1 sequence (looked up): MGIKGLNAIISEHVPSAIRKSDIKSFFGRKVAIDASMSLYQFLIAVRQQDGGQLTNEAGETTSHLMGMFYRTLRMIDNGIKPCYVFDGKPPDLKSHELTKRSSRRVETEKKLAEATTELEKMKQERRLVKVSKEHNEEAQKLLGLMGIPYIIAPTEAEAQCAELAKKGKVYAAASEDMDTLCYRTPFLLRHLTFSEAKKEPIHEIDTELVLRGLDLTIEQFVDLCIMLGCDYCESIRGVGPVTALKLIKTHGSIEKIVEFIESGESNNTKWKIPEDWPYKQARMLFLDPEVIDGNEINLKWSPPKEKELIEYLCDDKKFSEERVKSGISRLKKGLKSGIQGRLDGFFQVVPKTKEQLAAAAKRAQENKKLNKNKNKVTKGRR


Assays:
[1] = biological target: T1, S.c. Rad27 (Fen1) flap endonuclease …; assay: mass photometry
[2] = biological target: T1, S.c. Rad27 (Fen1) flap endonuclease …; assay: single-molecule colocalisation on DNA

| binding result [1] | binding result [2] | Binder |
| --- | --- | --- |
| binds |  | PCNA (as used in mass photometry; tag and label not stated) (natural protein, S. cerevisiae, UniProt P15873 1-258, looked up) MLEAKFEEASLFKRIIDGFKDCVQLVNFQCKEDGIIAQAVDDSRVLLVSLEIGVEAFQEYRCDHPVTLGMDLTSLSKILRCGNNTDTLTLIADNTPDSIILLFEDTKKDRIAEYSLKLMDIDADFLKIEELQYDSTLSLPSSEFSKIVRDLSQLSDSINIMITKETIKFVADGDIGSGSVIIKPFVDMEHPETSIKLEMDQPVDLTFGAKYLLDIIKGSSLSDRVGIRLSSEAPALFQFDLKSGFLQFFLAPKFNDEE |
|  | binds | LD655-PCNA (S. cerevisiae 3X FLAG-S6-tagged PCNA labeled with LD655) (natural protein, UniProt P15873 1-258, looked up, LD655 (from LD655-CoA, by SFP synthase) on the single serine residue of the S6 tag) MLEAKFEEASLFKRIIDGFKDCVQLVNFQCKEDGIIAQAVDDSRVLLVSLEIGVEAFQEYRCDHPVTLGMDLTSLSKILRCGNNTDTLTLIADNTPDSIILLFEDTKKDRIAEYSLKLMDIDADFLKIEELQYDSTLSLPSSEFSKIVRDLSQLSDSINIMITKETIKFVADGDIGSGSVIIKPFVDMEHPETSIKLEMDQPVDLTFGAKYLLDIIKGSSLSDRVGIRLSSEAPALFQFDLKSGFLQFFLAPKFNDEE |
